Test results published in patent publication US20110104788A1.
pKd: −log10 of the molar value. Like-named read-outs stand apart in the source and are kept apart here.

Assays:
[1] = molecular target: human coagulation factor X (FX), full-length zymogen (human) (UniProt P00742)
[2] = molecular target: human coagulation factor X (FX), full-length zymogen (human) (UniProt P00742); assay: SPR (Biacore T100); human FX immobilised on CM5 chip, inhibitor injected; heterogeneous ligand model
[3] = molecular target: mouse coagulation factor X (mouse) (UniProt O88947); assay: SPR (Biacore T100); mouse FX immobilised on CM5 chip, inhibitor injected; heterogeneous ligand model
Chain of mouse coagulation factor X (mouse) (O88947 41-481 limits assumed): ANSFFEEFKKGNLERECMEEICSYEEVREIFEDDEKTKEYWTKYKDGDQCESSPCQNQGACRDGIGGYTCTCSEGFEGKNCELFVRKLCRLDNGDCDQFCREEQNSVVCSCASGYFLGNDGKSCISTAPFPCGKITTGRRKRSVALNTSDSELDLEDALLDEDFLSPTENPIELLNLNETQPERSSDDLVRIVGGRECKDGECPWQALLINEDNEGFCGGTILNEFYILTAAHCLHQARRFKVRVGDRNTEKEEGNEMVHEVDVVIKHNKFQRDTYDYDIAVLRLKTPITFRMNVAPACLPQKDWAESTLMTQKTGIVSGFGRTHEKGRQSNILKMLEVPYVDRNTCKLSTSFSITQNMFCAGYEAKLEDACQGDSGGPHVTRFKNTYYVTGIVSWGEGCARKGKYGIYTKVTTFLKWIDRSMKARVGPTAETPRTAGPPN

Chain of Ixolaris, 12 kDa two-Kunitz domain protein isolated from tick salivary gland (Q964Q0 27-165 limits assumed): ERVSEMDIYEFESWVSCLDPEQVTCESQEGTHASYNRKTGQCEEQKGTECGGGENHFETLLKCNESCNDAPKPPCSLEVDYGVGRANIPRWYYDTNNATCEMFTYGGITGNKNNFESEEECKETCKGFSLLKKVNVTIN
Chain of human coagulation factor X (FX), full-length zymogen (human) (P00742 41-488 limits assumed): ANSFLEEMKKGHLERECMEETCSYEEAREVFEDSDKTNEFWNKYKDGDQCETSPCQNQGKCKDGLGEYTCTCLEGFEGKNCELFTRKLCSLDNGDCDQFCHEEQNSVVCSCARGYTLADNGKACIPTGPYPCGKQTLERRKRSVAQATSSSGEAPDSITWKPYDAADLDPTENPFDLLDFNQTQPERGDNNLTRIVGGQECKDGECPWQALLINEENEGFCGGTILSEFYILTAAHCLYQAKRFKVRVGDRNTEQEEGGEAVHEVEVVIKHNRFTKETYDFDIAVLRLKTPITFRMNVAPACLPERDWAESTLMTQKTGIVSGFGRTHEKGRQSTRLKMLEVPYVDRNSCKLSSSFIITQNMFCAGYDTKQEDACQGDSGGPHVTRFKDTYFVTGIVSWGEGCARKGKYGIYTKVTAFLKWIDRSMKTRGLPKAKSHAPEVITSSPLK

Ixolaris, 12 kDa two-Kunitz domain protein isolated from tick salivary gland (from UniProt Q964Q0 27-165) (other; other documents disagree on this pair)
pKd [1]: 8.89 | koff [1]: 0.000175 s⁻¹ | kon [1]: 135000 M⁻¹ s⁻¹

nematode anticoagulant peptide-2 (NAPc2)
pKd [2]: 10.14 | koff [2]: 0.000623 s⁻¹ | kon [2]: 8.6e+06 M⁻¹ s⁻¹ | pKd [3]: 7.77 | koff [3]: 0.31 s⁻¹ | kon [3]: 1.8e+07 M⁻¹ s⁻¹
